This note sets out measurements from patent US8030025B2, “Antibodies directed to angiopoietin-1 and angiopoietin-2 and uses thereof” (Amgen Inc., dated 2011).

For orientation: IC50 means the concentration at which inhibition is half-maximal. Read a low IC50 as greater potency in that assay.

Targets include Rabbit Ang1 (rabbit, UniProt G1SK98); Murine Ang1 (mouse, UniProt O08538); Cyno Ang1 (cynomolgus monkey, UniProt A0A2K5VW43); Human Ang1 (human, UniProt Q15389); Rabbit Ang2 (rabbit, UniProt G1T9B3); Cyno Ang2 (cynomolgus monkey, UniProt A0A2K5VNX6); Murine Ang2 (mouse, UniProt O35608); Human Ang2 (human, UniProt O15123).
Common to all, as to assay: neutralization ELISA; coated angiopoietin vs Tie2-Fc
(An ELISA detects its analyte on a solid surface through an enzyme-linked reagent.)

B1: H6L7 (IgG2) (antibody, V domains shown)
VH: EVQLVQSGGGVVQPGRSLRLSCAASGFTFSSYGMHWVRQAPGKGLEWVSYISSSGSTIYYADSVKGRFTISRDNAKNSLYLQMNSLRAEDTAVYYCARDLLDYDIYTGYGYWGQGTLVTVSS
VL: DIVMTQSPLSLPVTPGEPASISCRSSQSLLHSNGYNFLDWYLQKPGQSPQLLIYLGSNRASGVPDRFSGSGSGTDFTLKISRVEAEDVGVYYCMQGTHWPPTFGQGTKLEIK
Consider B1, for which the IC50 in the assay with Rabbit Ang1 stood at 0.18 nM; with Murine Ang1 it was 0.12 nM; with Cyno Ang1, 0.19 nM; in the assay with Human Ang1 it was 0.12 nM; in the assay with Rabbit Ang2, 0.15 nM; in the assay with Cyno Ang2, 0.19 nM. Also, the IC50 is 0.13 nM with Murine Ang2 and 0.22 nM in the assay with Human Ang2.

B2: H4L4 (IgG2) (antibody, V domains shown)
VH: EVQLVQSGGGVVQPGRSLRLSCAASGFTFSSYGMHWVRQAPGKGLEWVSYISSSGSTIYYADSVKGRFTISRDNAKNSLYLQMNSLRAEDTAVYYCARDLLDYDLLTGYGYWGQGTLVTVSS
VL: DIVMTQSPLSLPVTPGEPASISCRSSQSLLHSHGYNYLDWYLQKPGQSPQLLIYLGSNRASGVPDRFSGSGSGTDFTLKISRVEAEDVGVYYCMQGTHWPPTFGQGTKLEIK
Turning to B2, the concentration for half-maximal inhibition (IC50) in the assay with Rabbit Ang1 is 2.8 nM; with Murine Ang1, 3.3 nM; in the assay with Cyno Ang1, 4 nM; with Human Ang1, 3.2 nM; with Rabbit Ang2, 0.15 nM; with Cyno Ang2, 0.24 nM. For the same molecule, the half-maximal inhibitory concentration (IC50) with Murine Ang2 amounted to 0.15 nM; with Human Ang2, 0.22 nM.

B3: 536 LC1 (antibody, V domains shown)
VH: EVQLVQSGGGVVQPGRSLRLSCAASGFTFSSYGMHWVRQAPGKGLEWVSYISSSGSTIYYADSVKGRFTISRDNAKNSLYLQMNSLRAEDTAVYYCARDLLDYDILTGYGYWGQGTLVTVSS
VL: not shown
As for B3, the IC50 with Rabbit Ang1 came to 502 nM; with Murine Ang1, 305 nM; with Cyno Ang1 it was 531 nM; in the assay with Human Ang1, 515 nM; with Rabbit Ang2 it was 0.2 nM; in the assay with Cyno Ang2, 0.19 nM. Besides, the IC50 with Murine Ang2 was 0.14 nM; with Human Ang2 it was 0.27 nM.

B4: H4L11 (IgG2) (antibody, V domains shown)
VH: EVQLVQSGGGVVQPGRSLRLSCAASGFTFSSYGMHWVRQAPGKGLEWVSYISSSGSTIYYADSVKGRFTISRDNAKNSLYLQMNSLRAEDTAVYYCARDLLDYDLLTGYGYWGQGTLVTVSS
VL: not shown
B4: the half-maximal inhibitory concentration (IC50) with Rabbit Ang1 was 16 nM; with Murine Ang1, 7.7 nM; with Human Ang1 it was 17 nM; with Rabbit Ang2, 0.12 nM; with Cyno Ang2 it was 0.16 nM; with Murine Ang2, 0.12 nM. In addition, in the assay with Human Ang2, the IC50 was 0.21 nM.
